We go through nine molecules from article PMC5148066.

Assay [1] addresses Bovine papular stomatitis virus chemokine-binding protein (Bovine papular stomatitis virus (strain V660 named for the sequence analysis)). Description: SEC-MALS; purified BPSV-CBP in solution, three concentrations (2, 1, 0.05 mg/ml). On the technique in general: Size exclusion chromatography separates by hydrodynamic size, large species first.
The target of assay [2] is Bovine papular stomatitis virus chemokine-binding protein (Bovine papular stomatitis virus). Description: SPR; BPSV-CBP immobilised on a CM5 chip (~500 RU, amine coupling, 10 mM sodium acetate pH 4.5); serial dilutions of mouse chemokines in HBS-EP pH 7.4 flowed in triplicate, 3 min association, 10 min dissociation, 25°C, Biacore X100; global fit, 1:1 binding model. Background: SPR reads the build-up and loss of mass on a sensor chip optically.

Assay [3] shares this target. The description is as above. The source holds these as a separate data set.
For assay [4], the target named is Bovine papular stomatitis virus chemokine-binding protein (Bovine papular stomatitis virus (strain V660 named for the sequence analysis)). Description: SPR; BPSV-CBP immobilised on a CM5 chip (~500 RU) by amine coupling; serial dilutions of mouse chemokines in HBS-EP (20 mM HEPES, 150 mM NaCl, 3.4 mM EDTA, 0.005% Polysorbate 20, pH 7.4) run in triplicate, 3 min association, 10 min dissociation; 25°C, Biacore X100; global fit with a 1:1 binding model.

Where two headings read alike, the source gives them in different places.

The term stoichiometry N denotes the number of molecules, sites or subunits per partner or assembly. With “Bovine papular stomatitis virus chemokine-binding protein (natural protein)”, the stoichiometry N in assay [1] amounted to 2.

By Kd is commonly meant the constant that tells how readily two partners part at equilibrium. Lower therefore signals a tighter complex. For orientation: koff means a measure of how fast the partners let go of each other. The low end stands for slow dissociation, the high end for fast dissociation. In general, kon refers to a measure of how fast the partners come together. Turning to “mouse CCL2 (from UniProt P10148 24-148) (ligand)”, in assay [2], the Kd worked out at 0.186 nM, the koff worked out at 0.00022 s⁻¹ and the kon came out at 1.18e+06 M⁻¹ s⁻¹.

On to “mouse CCL21 (from UniProt P84444 24-133) (ligand)”, for which, in assay [2], the Kd is 0.385 nM, the dissociation rate constant (koff) turned out to be 0.00296 s⁻¹ and the kon came to 7.68e+06 M⁻¹ s⁻¹.

B1: mouse CXCL1 (ligand)
chain: APIANELRCQCLQTMAGIHLKNIQSLKVLPSGPHCTQTEVIATLKNGREACLDPEAPLVQKIVQKMLKGVPK
B1: in assay [3], the Kd was 4.33 nM, the koff stood at 0.00316 s⁻¹ and the on-rate constant (kon) is 730000 M⁻¹ s⁻¹. The molecule also gave a Kd in assay [4] of 4.3 nM.

B2: mouse CXCL2 (ligand)
chain: AVVASELRCQCLKTLPRVDFKNIQSLSVTPPGPHCAQTEVIATLKGGQKVCLDPEAPLVQKIIQKILNKGKAN
In assay [3], B2 displayed a koff of 0.00056 s⁻¹ and a kon of 770000 M⁻¹ s⁻¹. In addition, in assay [4], the Kd stood at 0.725 nM and the koff is 0.0006 s⁻¹.

B3: mouse CCL3 (ligand)
chain: APYGADTPTACCFSYSRKIPRQFIVDYFETSSLCSQPGVIFLTKRNRQICADSKETWVQEYITDLELNA
In assay [3], B3 gave a Kd of 0.13 nM, a koff of 0.00023 s⁻¹ and a kon of 1.76e+06 M⁻¹ s⁻¹.

B4: mouse CCL19 (ligand)
chain: GANDAEDCCLSVTQRPIPGNIVKAFRYLLNEDGCRVPAVVFTTLRGYQLCAPPDQPWVDRIIRRLKKSSAKNKGNSTRRSPVS
On to B4, for which, in assay [3], the Kd came out at 0.00146 nM and the kon was found to be 1.37e+07 M⁻¹ s⁻¹. In assay [4], this molecule had a koff of 2e-05 s⁻¹.

B5: mouse XCL1 (ligand)
chain: VGTEVLEESSCVNLQTQRLPVQKIKTYIIWEGAMRAVIFVTKRGLKICADPEAKWVKAAIKTVDGRASTRKNMAETVPTGAQRSTSTAITLTG
As to B5, in assay [3], the Kd was determined as 1.36 nM, the koff came out at 0.00135 s⁻¹ and the on-rate (kon) is 990000 M⁻¹ s⁻¹. In assay [4], this molecule registered a Kd of 1.4 nM, a koff of 0.0014 s⁻¹ and a kon of 1e+06 M⁻¹ s⁻¹.

B6: mouse CXCL4 (ligand)
chain: VTSAGPEESDGDLSCVCVKTISSGIHLKHITSLEVIKAGRHCAVPQLIATLKNGRKICLDRQAPLYKKVIKKILES
In assay [3], B6 came in with a Kd of 2.32 nM, a koff of 0.00234 s⁻¹ and a kon of 1.01e+06 M⁻¹ s⁻¹. For the same molecule, the Kd in assay [4] was determined as 2.3 nM.
